The data set is described as follows: self-splicing fitness, log relative to wild type (ln ratio); higher = more splicing; Tetrahymena group I intron in knt gene, E. coli kanamycin selection, DiMSum; sequences stand for … in CUCUCU…GGAGGGAAAAGUUAUCAGGCAUGCACCUGGUAGCUAGUCUUUAAACCAAUAGAUUGCAUCGGUUUAAAAGGCAAGACCGUCAAAUUGCGGGAAAGGGGUCAACAGCCGUUCAGUACCAAGUCUCAGGGGAAACUUUGAGAUGGCCUUGCAAAGGGUAUGGUAAUAAGCUGACGGACAUGGUCCUAACCACGCAGCCAAGUCCUAAGUCAACAGAUCUUCUGUUGAUAUGGAUGCAGUUCACAGACUAAAUGUCGGUCGGGGAAGAUGUAUUCUUCUCAUAAGAUAUAGUCGGACCUCUCCUUAAUGGGAGCUAGCGGAUGAAGUGAUGCAACACUGGAGCCGCUGGGAACUAAUUUGUAUGCGAAAGUAUAUUGAUUAGUUUUGGAGUACUCGUGGUCG
The method, boiled down:
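Pooled colonies went to amplicon sequencing on an Illumina HiSeq 2500 after six replicate transformations. The plates were LB agar with 100 μg/mL carbenicillin, 50 μM IPTG and 0.2% rhamnose, with or without 25 μg/mL kanamycin, incubated overnight at 37°C or 30°C. The E. coli BL21(DE3) library had all eight P1ex-region intron nucleotides randomised, the intron placed in the knt kanamycin-resistance gene on pET-22b(+). DiMSum fitness is the error-weighted combination of replicate fold changes, kanamycin against none, normalised to wild type.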

± gives the uncertainty stated by the source.

For UGAUAGCAAUAUUACGUGCU, the “self-splicing fitness (ln)” value was -1.84 ± 0.094 (30 °C) and -1.59 ± 0.14 (37 °C). Regarding UGCGAGCAAUAUUACGGUAU, the “self-splicing fitness (ln)” value runs as follows: (30 °C) -5.17 ± 0.38; (37 °C) -2.32 ± 0.19. In the case of CAGCAGCAAUAUUACGGAUC, the “self-splicing fitness (ln)” value is -3.6 ± 0.36 (30 °C) and -1.37 ± 0.26 (37 °C). In the same order, the values of CCGGAGCAAUAUUACGGAAC are -3.29 ± 0.47 and -1.67 ± 0.36.

As for UUCAAGCAAUAUUACGUCCG, the “self-splicing fitness (ln)” value reads like this: (30 °C) -1.33 ± 0.095; (37 °C) -0.121 ± 0.14. In the same order, the values of UGUCAGCAAUAUUACGUAAU are -1.03 ± 0.08 and -0.593 ± 0.089. For GUCGAGCAAUAUUACGGGUA the same measures were -2.65 ± 0.27 and -2.91 ± 0.22. Take CAGCAGCAAUAUUACGUUCU: the “self-splicing fitness (ln)” value is, setting by setting: (30 °C) -2.35 ± 0.072; (37 °C) -1.4 ± 0.081. In the same order, the values of AUUCAGCAAUAUUACGGUCG are -0.857 ± 0.085 and -0.679 ± 0.14. For GCCUAGCAAUAUUACGAGAU the same measures were -1.88 ± 0.12 and -0.45 ± 0.11. With ACGCAGCAAUAUUACGAUCU, the “self-splicing fitness (ln)” value was -0.427 ± 0.063 (30 °C) and 0.356 ± 0.091 (37 °C). For AGUCAGCAAUAUUACGGUCG the same measures were 0.451 ± 0.089 and 0.0344 ± 0.12.

As for AUAAAGCAAUAUUACGUCCU, the “self-splicing fitness (ln)” value is, setting by setting: (30 °C) 0.13 ± 0.054; (37 °C) 0.82 ± 0.079. In the same order, the values of AAUCAGCAAUAUUACGCUGA are -2.61 ± 0.17 and -1.76 ± 0.24. Regarding CGGUAGCAAUAUUACGGCUA, the “self-splicing fitness (ln)” value is, setting by setting: (30 °C) -1.59 ± 0.2; (37 °C) -2.01 ± 0.28. As for GUAAAGCAAUAUUACGAUCC, the “self-splicing fitness (ln)” value by setting is: (30 °C) -0.0218 ± 0.18; (37 °C) 0.363 ± 0.29.

As to AUCGAGCAAUAUUACGCCAU, the “self-splicing fitness (ln)” value by setting is: (30 °C) -2.34 ± 0.31; (37 °C) -2.79 ± 0.3. As for UGGCAGCAAUAUUACGUUUU, the “self-splicing fitness (ln)” value was -2.85 ± 0.14 (30 °C) and -0.527 ± 0.13 (37 °C). In the same order, the values of CGUCAGCAAUAUUACGUCGA are -2.18 ± 0.1 and -1.77 ± 0.14. GCCAAGCAAUAUUACGAUAG: the “self-splicing fitness (ln)” value reads like this: (30 °C) -3.28 ± 0.36; (37 °C) -2.43 ± 0.25. In the same order, the values of AAACAGCAAUAUUACGGAUC are -2.82 ± 0.11 and -1.73 ± 0.11. For the sequence CAUAAGCAAUAUUACGUACC, under “30 °C”, the “self-splicing fitness (ln)” value was -1.97 ± 0.3. On to AUGCAGCAAUAUUACGCUAG, for which the “self-splicing fitness (ln)” value is -3.93 ± 0.26 (30 °C) and -2.49 ± 0.23 (37 °C). Regarding GGCCAGCAAUAUUACGCGUU, the “self-splicing fitness (ln)” value by setting is: (30 °C) -0.164 ± 0.09; (37 °C) 0.0494 ± 0.12.

With CUAUAGCAAUAUUACGCUUU, the “self-splicing fitness (ln)” value runs as follows: (30 °C) -4.86 ± 0.45; (37 °C) -3.17 ± 0.28.

As for ACUCAGCAAUAUUACGACGU, the “self-splicing fitness (ln)” value by setting is: (30 °C) -0.498 ± 0.063; (37 °C) 0.168 ± 0.082. In the same order, the values of ACGAAGCAAUAUUACGAGUC are -4.22 ± 0.24 and -2.21 ± 0.19.

As to AUUAAGCAAUAUUACGCCCG, the “self-splicing fitness (ln)” value was -1.13 ± 0.22 (30 °C) and 0.13 ± 0.33 (37 °C). In the case of GUAUAGCAAUAUUACGUAUC, the “self-splicing fitness (ln)” value by setting is: (30 °C) -2.07 ± 0.18; (37 °C) -0.978 ± 0.2. In the same order, the values of UAGCAGCAAUAUUACGCGUG are -1.5 ± 0.076 and -0.257 ± 0.1. For CCUGAGCAAUAUUACGAACU the same measures were -3.4 ± 0.13 and -2.42 ± 0.17. Regarding UAAGAGCAAUAUUACGGAAG, under “30 °C”, the “self-splicing fitness (ln)” value is -2.8 ± 0.41. Consider GUAGAGCAAUAUUACGGUAU, for which the “self-splicing fitness (ln)” value by setting is: (30 °C) -1.38 ± 0.083; (37 °C) -0.286 ± 0.1.

On to UUUAAGCAAUAUUACGGGCA, for which the “self-splicing fitness (ln)” value reads like this: (30 °C) -1.05 ± 0.12; (37 °C) -0.851 ± 0.14. With CUGCAGCAAUAUUACGUUGA, the “self-splicing fitness (ln)” value is -3.42 ± 0.2 (30 °C) and -3.21 ± 0.24 (37 °C). For AUGUAGCAAUAUUACGGUUU the same measures were -0.83 ± 0.085 and -0.694 ± 0.1. As for AUCCAGCAAUAUUACGACCG, the “self-splicing fitness (ln)” value was -1.43 ± 0.084 (30 °C) and -0.707 ± 0.12 (37 °C). On to CAAAAGCAAUAUUACGAGGU, for which the “self-splicing fitness (ln)” value (30 °C) was -3.46 ± 0.15 and the “self-splicing fitness (ln)” value (37 °C) is -2.91 ± 0.21.

For the origin of these results see the supplement of paper PMC7877785.
